The record followed here is PMC4768215, “Targeting surface-layer proteins with single-domain antibodies: a potential therapeutic approach against Clostridium difficile-associated disease” (Applied Microbiology and Biotechnology, 2015).

A word on the Kd: it is the concentration at which binding is half-saturated. Read a high Kd as lower affinity. As usually defined, the koff is a measure of how fast the partners let go of each other. Read a low koff as slow dissociation. One may read the kon as a measure of how fast the partners come together. The low end stands for slow association, the high end for fast association.

The target of assay [1] is T1, SLP on cells of C. difficile strain R20291 (ribotype 027) (Clostridioides difficile R20291 …, UniProt A0A9R0BMB3, strain).
T1 construct: LMW subunit of the surface layer protein (from the precursor SlpA), C. difficile strain R20291, ribotype 027; HMW subunit of the surface layer protein (from the precursor SlpA), C. difficile strain R20291, ribotype 027; Whole cells were the antigen; source: endogenous, on formalin-fixed C. difficile R20291 cells
Kind of assay: ELISA; whole cell ELISA: formalin-fixed C. difficile cells coated on MaxiSorp plates, His6-tagged VHH at 10 μg/ml in PBS-T, 37 °C, 1 h, detected with anti-His6-HRP. To be noted: one partner purified.

Assay [2] has as its target T2, SLP on cells of C. difficile strain BI-1 (ribotype 027) (Clostridioides difficile BI-1 (ribotype …, UniProt A0A9R0BMB3, strain)).
T2 construct: LMW subunit of the surface layer protein (from the precursor SlpA), C. difficile strain BI-1, ribotype 027; HMW subunit of the surface layer protein (from the precursor SlpA), C. difficile strain BI-1, ribotype 027; Whole cells were the antigen; source: endogenous, on formalin-fixed C. difficile BI-1 cells
The description is as above. To be noted: one partner purified.

The target of assay [3] is T3, SLP on cells of C. difficile strain 196 (ribotype 027) (Clostridioides difficile 196 (ribotype …, UniProt A0A9R0BMB3, strain)).
T3 construct: LMW subunit of the surface layer protein (from the precursor SlpA), C. difficile strain 196, ribotype 027; HMW subunit of the surface layer protein (from the precursor SlpA), C. difficile strain 196, ribotype 027; Whole cells were the antigen; source: endogenous, on formalin-fixed C. difficile 196 cells
The description is as above. To be noted: one partner purified.

Assay [4] deals with T4, SLP on cells of C. difficile strain BI-7 (ribotype 027) (Clostridioides difficile BI-7 (ribotype …, UniProt A0A9R0BMB3, strain)).
T4 construct: LMW subunit of the surface layer protein (from the precursor SlpA), C. difficile strain BI-7, ribotype 027; HMW subunit of the surface layer protein (from the precursor SlpA), C. difficile strain BI-7, ribotype 027; Whole cells were the antigen; source: endogenous, on formalin-fixed C. difficile BI-7 cells
The assay is described as above. To be noted: one partner purified.

Assay [5] addresses T5, QCD-32g58 LMW SLP (low-molecular-weight subunit of the QCD-32g58 surface layer protein) (Clostridioides difficile QCD-32g58 …, UniProt A0A9R0BMB3, strain).
T5 construct: low-molecular-weight (LMW) subunit of the surface layer protein, cut from the precursor SlpA by Cwp84, C. difficile strain QCD-32g58 (ribotype 027); predicted mass 33.9 kDa; also called QCD-32g58 SLP LMW subunit; LMW subunit; source: purified from C. difficile QCD-32g58 (low-pH glycine extraction, minor SEC peak at about 15 ml); in the Western blot the LMW band of the extracted SLPs
Kind of assay: SPR; Biacore 3000; SEC-purified QCD-32g58 LMW SLP subunit amine-coupled to a CM5 chip; single-concentration screen, 200 nM VHH; 25 °C, 10 mM HEPES pH 7.4, 150 mM NaCl, 3 mM EDTA, 0.005 % P20. To be noted: both partners purified.

For assay [6], the target named is T6, QCD-32g58 SLP (surface layer protein of C. difficile strain QCD-32g58, HMW and LMW subunits) (Clostridioides difficile QCD-32g58 …, UniProt A0A9R0BMB3, strain).
T6 construct: low-molecular-weight (LMW) subunit of the surface layer protein, cut from the precursor SlpA by Cwp84, C. difficile strain QCD-32g58 (ribotype 027); predicted mass 33.9 kDa; high-molecular-weight (HMW) subunit of the surface layer protein, cut from the precursor SlpA by Cwp84, C. difficile strain QCD-32g58 (ribotype 027); predicted mass 44.2 kDa; Both subunits come from one precursor, SlpA; also …
Kind of assay: SPR; Biacore 3000; SEC-purified QCD-32g58 SLP amine-coupled to a CM5 chip, VHH monomer fractions injected at various concentrations; 25 °C, 10 mM HEPES pH 7.4, 150 mM NaCl, 3 mM EDTA, 0.005 % P20; KD by steady-state analysis. To be noted: both partners purified. In general terms: SPR reads the build-up and loss of mass on a sensor chip optically.

Assay [7] concerns the target T7, 630 SLP (surface layer protein of C. difficile strain 630, HMW and LMW subunits) (Clostridioides difficile 630 (ribotype …, UniProt Q183M8, strain)).
T7 construct: low-molecular-weight (LMW) subunit of the surface layer protein, cut from the precursor SlpA by Cwp84, C. difficile strain 630 (ribotype 012); predicted mass 34.2 kDa; high-molecular-weight (HMW) subunit of the surface layer protein, cut from the precursor SlpA by Cwp84, C. difficile strain 630 (ribotype 012); predicted mass 39.5 kDa; Both subunits come from one precursor, SlpA; source: purified …
Kind of assay: SPR; Biacore 3000; 630 SLP immobilised on a CM5 chip, VHHs injected at various concentrations; data not shown. To be noted: both partners purified.

The target in assay [8] is QCD-32g58 LMW SLP (low-molecular-weight subunit of the QCD-32g58 surface layer protein) (Clostridium difficile strain QCD-32g58). The experiment in a line: SPR; Biacore 3000; SEC-purified QCD-32g58 LMW SLP subunit amine-coupled to a CM5 chip; single-concentration screen, 200 nM VHH; 25 °C, 10 mM HEPES pH 7.4, 150 mM NaCl, 3 mM EDTA, 0.005 % P20.
Assay [9] addresses 630 SLP (surface layer protein of C. difficile strain 630, HMW and LMW subunits) (Clostridium difficile strain 630). Kind of assay: SPR; Biacore 3000; 630 SLP immobilised on a CM5 chip, VHHs injected at various concentrations; data not shown.

B1: SLP_VHH50 (VHH)
VHH: QVKLEESGGGLVQPGGSLRLSCAASGFTLDYYTIGWFRQAPGKEREGVACISSDDRTYYVDSVKGRFAISRDNVKNTVYLQMNNLKPEDTAVYYCASKESVFLIATMKGCAPGHDDYWGQGTQVTVSS
notes: From an immune llama phage display library panned on QCD-32g58 SLP; source: monomeric SEC fractions for SPR; not shown: His6, C-terminal, kept
On to B1, for which the binding result is listed as “binds” in assay [1]; “binds” in assay [2]; “binds” in [3]; “binds” in assay [4]; “no binding” in [7]. Further, the Kd worked out at 14 nM in assay [5] and 75 nM in assay [6]. The molecule further displayed an off-rate constant (koff) in assay [5] of 0.0027 s⁻¹. In [5], this molecule came in with an association rate constant (kon) of 190000 M⁻¹ s⁻¹.

B2: SLP_VHH49 (VHH)
VHH: QVKLEESGGGLVQAGGSLRLSCAASEGAFSDALSRHAAGWFRQAPGKEREFVAAISWNGANTDYKNSVNNRFTISRDTSKNTVYLQMNSLKPEDTAVYYCAAKNEPSWISRIYYRGLEYDYWGQGTQVTVSS
notes: as for B1
For the molecule B2, the binding result in assay [1] is on record as “binds”; in [2], “binds”; in assay [3], “binds”; in assay [4] it was “binds”; in assay [7] it was “no binding”. In addition, the values for the Kd in assay [5] and in assay [6] were 20 nM and 48 nM, respectively. Further, in assay [5], the off-rate (koff) amounted to 0.012 s⁻¹. In assay [5], this molecule returned a kon of 590000 M⁻¹ s⁻¹.

B3: SLP_VHH22 (VHH)
VHH: QVQLVESGGGLVQPGGSLRLSCAASGFTLDSYAIGWFRQAPGKEHEGISCISSNGGSTYYTDSVKGRFTISRDNAKNTVYLQMNSLESEDSAVYYCATVRRCSSLDMALGALATRTKGYDYWGQGTQVTVSS
notes: as for B1
On to B3, for which the binding result in assay [1] was “binds”; in assay [2] it was “binds”; in assay [3], “binds”; in assay [4], “binds”; in [7], “no binding”. Moreover, the dissociation constant (Kd) was 8 nM in assay [5] and 180 nM in [6]. In assay [5], this molecule displayed a koff of 0.0011 s⁻¹. Further, the on-rate (kon) in [5] was 130000 M⁻¹ s⁻¹.

B4: SLP_VHH26 (VHH)
VHH: QVKLEESGGGLVQAGGSLRLSCAASGRTFTNYAMAWFRQASGKEREFVAIISQSGGRTYYGDSVKGRFTISRDNAKNTVYLQLNSLQPEDTGVYYCAAGDSPYYYSRSRYDLWGPGTQVTVSS
notes: as for B1
For B4, the figures for the Kd in assay [8], in [9] and in assay [6] were 460 nM, 2000 nM and 580 nM, respectively. Further, the koff in [8] amounted to 0.097 s⁻¹. In [8], this molecule yielded a kon of 210000 M⁻¹ s⁻¹. Also, the binding result in assay [1], in [2], in [3] and in assay [4] was “binds” throughout.
